According to paper PMC9719943, “Expression and structural analysis of human neuroligin 2 and neuroligin 3 implicated in autism spectrum disorders” (Frontiers in Endocrinology, 2022):

B1: full-length human NLGN3 (natural protein, UniProt Q9NZ94 38-848, looked up)
chain: QAPAPTVNTHFGKLRGARVPLPSEILGPVDQYLGVPYAAPPIGEKRFLPPEPPPSWSGIRNATHFPPVCPQNIHTAVPEVMLPVWFTANLDIVATYIQEPNEDCLYLNVYVPTEDVKRISKECARKPNKKICRKGGSGAKKQGEDLADNDGDEDEDIRDSGAKPVMVYIHGGSYMEGTGNMIDGSILASYGNVIVITLNYRVGVLGFLSTGDQAAKGNYGLLDQIQALRWVSENIAFFGGDPRRITVFGSGIGASCVSLLTLSHHSEGLFQRAIIQSGSALSSWAVNYQPVKYTSLLADKVGCNVLDTVDMVDCLRQKSAKELVEQDIQPARYHVAFGPVIDGDVIPDDPEILMEQGEFLNYDIMLGVNQGEGLKFVEGVVDPEDGVSGTDFDYSVSNFVDNLYGYPEGKDTLRETIKFMYTDWADRDNPETRRKTLVALFTDHQWVEPSVVTADLHARYGSPTYFYAFYHHCQSLMKPAWSDAAHGDEVPYVFGVPMVGPTDLFPCNFSKNDVMLSAVVMTYWTNFAKTGDPNKPVPQDTKFIHTKANRFEEVAWSKYNPRDQLYLHIGLKPRVRDHYRATKVAFWKHLVPHLYNLHDMFHYTSTTTKVPPPDTTHSSHITRRPNGKTWSTKRPAISPAYSNENAQGSWNGDQDAGPLLVENPRDYSTELSVTIAVGASLLFLNVLAFAALYYRKDKRRQEPLRQPSPQRGAGAPELGAAPEEELAALQLGPTHHECEAGPPHDTLRLTALPDYTLTLRRSPDDIPLMTPNTITMIPNSLVGLQTLHPYNTFAAGFNSTGLPHSHSTTRV
notes: neuroligin 3 (NLGN3), human, full-length gene in pCDNA3.1; UniProt ID Q9NZ94 printed for NLGN3; also called neuroligin 3
B2: extracellular domain of human NLGN2 (domain or fragment, UniProt Q8NFZ4 15-677, looked up)
chain: QRGGGGPGGGAPGGPGLGLGSLGEERFPVVNTAYGRVRGVRRELNNEILGPVVQFLGVPYATPPLGARRFQPPEAPASWPGVRNATTLPPACPQNLHGALPAIMLPVWFTDNLEAAATYVQNQSEDCLYLNLYVPTEDGPLTKKRDEATLNPPDTDIRDPGKKPVMLFLHGGSYMEGTGNMFDGSVLAAYGNVIVATLNYRLGVLGFLSTGDQAAKGNYGLLDQIQALRWLSENIAHFGGDPERITIFGSGAGASCVNLLILSHHSEGLFQKAIAQSGTAISSWSVNYQPLKYTRLLAAKVGCDREDSAEAVECLRRKPSRELVDQDVQPARYHIAFGPVVDGDVVPDDPEILMQQGEFLNYDMLIGVNQGEGLKFVEDSAESEDGVSASAFDFTVSNFVDNLYGYPEGKDVLRETIKFMYTDWADRDNGEMRRKTLLALFTDHQWVAPAVATAKLHADYQSPVYFYTFYHHCQAEGRPEWADAAHGDELPYVFGVPMVGATDLFPCNFSKNDVMLSAVVMTYWTNFAKTGDPNQPVPQDTKFIHTKPNRFEEVVWSKFNSKEKQYLHIGLKPRVRDNYRANKVAFWLELVPHLHNLHTELFTTTTRLPPYATRWPPRPPAGAPGTRRPPPPATLPPEPEPEPGPRAYDRFPGDSRDYSTELS
notes: neuroligin 2 (NLGN2), human, extracellular domain; Subcloned into the secretory vector pSecTAG2B; also called neuroligin 2; NLGN2 ectodomain; source: Expi293F (HEK293F) cells, transiently transfected, purified (nickel resin, Superose 6 SEC)

Molecular target: the molecule itself
Experiment: cryo-EM structure; purified NLGNs at 0.25 mg/ml on holey carbon grids; protein in 25 mM HEPES pH 7.5, 150 mM NaCl; homodimer, C2 symmetry

Protein	stoichiometry N
B1	2
B2	2
